B1: CPXM2 (parent)
chain: TASTKNCMVGYDMGATRCDFTLSK

Variants of: B1
Assay: protein stability index of a GFP-peptide fusion (GPS, HEK-293T) (PSI 1-6); higher = more stable
Conditions: c terminus: a fixed tail appended
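Note: lentivirally expressed fusions sorted by FACS into six bins by GFP to DsRed ratio, PSI derived from sequencing read proportions per bin multiplied by bin number.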

Protein stability index of substitutions, site by site:
A15: K 2.84, F 2.51, W 2.71, N 2.62, V 3.16, H 2.89, P 2.33, E 2.75, Y 2.19, Q 2.77, L 2.71, C 1.8, T 2.37, M 2.07, S 1.68, R 1.89, D 2.78, I 2.58, G 2.61
D19: G 1.94, Y 2.36, E 2.18, K 2.67, S 2.08, N 3.07, L 2.54, M 1.82, H 2.59, R 2.9, I 1.94, Q 1.84, P 2.77, W 2.24, F 1.75, V 1.78, A 2.9, C 1.91, T 2.36
R17: W 2.13, T 3.38, L 3.53, K 3.28, H 2.72, F 2.81, E 3.79, Y 2.63, V 3.7, I 3.2, C 3.49, Q 3.67, P 3.57, D 3.96, S 3.31, N 3.32, M 3.07, A 3.87, G 3.72
G14: P 2.84, H 3, D 3.63, Q 2.44, V 1.75, W 2.15, F 1.93, K 2.76, R 2.88, T 2.76, N 3.17, Y 1.59, A 2.89, E 2.97, M 2.17, S 2.5, I 2.31, L 2.31, C 1.99
T21: A 2.37, D 2.52, H 3.16, I 2.02, G 2.48, E 3.16, F 2.11, C 1.57
F20: M 2.78, P 4.12, V 2.81, A 2.51, G 3.5, T 3.88, K 3.67, N 2.98, S 2.99, D 3.85, W 2.28, E 4.26, L 2.42, C 2.52, I 2.69, Y 2.13, R 3.63, H 3.5, Q 3.05
M13: A 2.74, T 2.99, Q 3.19, G 2.99, E 3.92, P 2.31, F 2.01, R 2.5, V 3.02, Y 2.54, W 2.02, K 1.91, D 3.76, N 3.21, L 2.58, S 2.81, C 2.08, I 2.11, H 2.64
D12: Y 1.69, V 2.44, Q 2.14, S 2.72, T 1.98, R 2.58, W 1.98
T16: G 2.27, R 3.06, C 2.26, I 1.6, D 3.72, L 2.45, P 2.62, Y 2.17, Q 2.86, S 2.81, H 2.47, A 2.7, N 2.75, E 2.97, W 2.39, V 2.66, K 2.74, M 2.28, F 1.75
C18: Y 2.46, I 2.84, F 2.42, M 2.59, H 2.8, E 3.53, G 1.87, A 2.04, D 2.98, W 3.08, V 2.19, R 2.68, N 2.43, T 2.66, Q 1.75, P 3.2, S 2.27, L 2.4, K 3.57

Source: the supplement of paper PMC10567573
